{"source": "patent US20240358855A1", "key": {"[1]": {"biological_target": "malondialdehyde modified LDL (UniProt P04114)", "assay": "plate binding ELISA on coated MDA-LDL, HEK293 supernatant; fold vs (-) control pCTM395 supernatant"}, "C3 convertase, C3bBb": {"biological_target": "C3 convertase, C3bBb (UniProt P01024)", "sequence (P01024 23-1663 limits assumed, chain 1 of 2)": "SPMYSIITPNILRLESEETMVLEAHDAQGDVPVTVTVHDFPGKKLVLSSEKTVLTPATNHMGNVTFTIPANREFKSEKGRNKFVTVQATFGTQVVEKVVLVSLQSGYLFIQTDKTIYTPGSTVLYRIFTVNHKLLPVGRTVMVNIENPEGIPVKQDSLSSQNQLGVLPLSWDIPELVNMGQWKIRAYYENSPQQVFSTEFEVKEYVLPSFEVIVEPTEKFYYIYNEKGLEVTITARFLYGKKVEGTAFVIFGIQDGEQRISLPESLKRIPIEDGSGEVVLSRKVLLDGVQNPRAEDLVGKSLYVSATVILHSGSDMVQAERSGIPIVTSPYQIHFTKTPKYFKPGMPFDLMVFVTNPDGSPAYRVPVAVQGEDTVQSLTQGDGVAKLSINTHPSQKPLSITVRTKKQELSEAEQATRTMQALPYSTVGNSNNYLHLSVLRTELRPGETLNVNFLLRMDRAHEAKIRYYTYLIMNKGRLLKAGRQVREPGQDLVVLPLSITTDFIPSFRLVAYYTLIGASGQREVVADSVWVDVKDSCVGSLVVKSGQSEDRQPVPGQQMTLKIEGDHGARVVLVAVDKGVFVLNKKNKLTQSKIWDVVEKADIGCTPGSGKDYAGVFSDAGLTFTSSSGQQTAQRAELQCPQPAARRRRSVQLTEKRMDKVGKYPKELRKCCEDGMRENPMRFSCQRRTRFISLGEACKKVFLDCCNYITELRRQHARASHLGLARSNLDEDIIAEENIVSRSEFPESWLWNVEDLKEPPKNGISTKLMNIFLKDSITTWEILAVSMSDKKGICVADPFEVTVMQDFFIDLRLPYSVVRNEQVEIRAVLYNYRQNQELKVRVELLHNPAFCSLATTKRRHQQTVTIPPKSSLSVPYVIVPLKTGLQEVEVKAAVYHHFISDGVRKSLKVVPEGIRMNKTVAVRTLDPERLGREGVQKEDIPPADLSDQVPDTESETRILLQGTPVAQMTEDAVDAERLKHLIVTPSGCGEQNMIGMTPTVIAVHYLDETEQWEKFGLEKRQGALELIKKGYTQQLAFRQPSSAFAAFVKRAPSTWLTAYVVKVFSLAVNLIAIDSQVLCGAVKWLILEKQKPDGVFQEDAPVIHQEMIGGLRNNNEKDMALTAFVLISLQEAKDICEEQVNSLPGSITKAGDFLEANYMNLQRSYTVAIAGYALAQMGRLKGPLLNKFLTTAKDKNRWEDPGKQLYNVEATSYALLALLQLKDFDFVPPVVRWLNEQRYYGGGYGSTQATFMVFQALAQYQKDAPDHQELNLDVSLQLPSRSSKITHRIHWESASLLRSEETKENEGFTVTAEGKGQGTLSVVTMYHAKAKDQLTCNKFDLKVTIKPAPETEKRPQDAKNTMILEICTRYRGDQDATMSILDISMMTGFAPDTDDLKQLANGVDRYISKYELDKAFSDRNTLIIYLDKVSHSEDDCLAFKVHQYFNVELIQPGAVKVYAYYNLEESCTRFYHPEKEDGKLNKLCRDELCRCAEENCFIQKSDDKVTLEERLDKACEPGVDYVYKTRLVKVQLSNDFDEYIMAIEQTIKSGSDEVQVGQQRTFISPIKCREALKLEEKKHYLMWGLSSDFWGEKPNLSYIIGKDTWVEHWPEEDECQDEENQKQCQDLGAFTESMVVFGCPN", "sequence (P00751 260-764 limits assumed, chain 2 of 2, further chain)": "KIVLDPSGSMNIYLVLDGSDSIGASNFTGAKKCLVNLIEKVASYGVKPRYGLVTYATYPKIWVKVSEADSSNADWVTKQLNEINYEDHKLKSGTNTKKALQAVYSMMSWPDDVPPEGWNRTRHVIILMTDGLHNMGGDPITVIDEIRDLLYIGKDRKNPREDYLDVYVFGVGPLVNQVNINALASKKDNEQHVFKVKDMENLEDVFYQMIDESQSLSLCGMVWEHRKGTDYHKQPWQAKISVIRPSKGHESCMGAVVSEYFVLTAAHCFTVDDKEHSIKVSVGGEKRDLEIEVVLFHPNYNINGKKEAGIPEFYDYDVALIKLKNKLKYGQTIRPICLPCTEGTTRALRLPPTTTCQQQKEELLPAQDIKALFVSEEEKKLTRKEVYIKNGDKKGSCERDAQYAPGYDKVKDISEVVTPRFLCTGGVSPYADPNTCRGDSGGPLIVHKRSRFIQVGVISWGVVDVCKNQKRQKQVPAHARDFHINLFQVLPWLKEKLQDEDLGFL", "assay": "cell-based or functional assay"}, "[2]": {"biological_target": "malondialdehyde modified LDL (UniProt P04114)", "assay": "plate binding ELISA on coated MDA-LDL, purified protein; reference"}, "CRP": {"biological_target": "T1, CRP (UniProt P02741)", "T1 sequence (looked up)": "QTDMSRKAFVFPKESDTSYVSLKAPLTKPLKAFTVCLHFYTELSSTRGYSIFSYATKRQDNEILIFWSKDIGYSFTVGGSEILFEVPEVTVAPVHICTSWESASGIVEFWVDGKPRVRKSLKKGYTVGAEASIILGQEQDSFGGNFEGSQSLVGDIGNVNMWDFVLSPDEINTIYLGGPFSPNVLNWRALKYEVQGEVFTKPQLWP", "assay": "plate binding ELISA on coated CRP, purified protein; reference"}, "C3d ligand": {"biological_target": "C3d ligand (UniProt P01024)", "sequence (P01024 1002-1303 limits assumed)": "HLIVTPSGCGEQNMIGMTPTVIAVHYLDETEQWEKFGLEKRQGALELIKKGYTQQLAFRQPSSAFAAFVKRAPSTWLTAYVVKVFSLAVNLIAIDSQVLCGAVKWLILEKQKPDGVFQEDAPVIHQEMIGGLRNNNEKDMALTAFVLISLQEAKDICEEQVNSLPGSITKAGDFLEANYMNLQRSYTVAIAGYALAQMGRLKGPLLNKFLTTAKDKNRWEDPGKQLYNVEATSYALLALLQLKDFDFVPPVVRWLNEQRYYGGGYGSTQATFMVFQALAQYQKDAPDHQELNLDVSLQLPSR", "assay": "plate binding assay on C3d, purified protein; reference"}, "C3b protein [3]": {"biological_target": "C3b protein (UniProt P01024)", "sequence (P01024 23-667 limits assumed, chain 1 of 2)": "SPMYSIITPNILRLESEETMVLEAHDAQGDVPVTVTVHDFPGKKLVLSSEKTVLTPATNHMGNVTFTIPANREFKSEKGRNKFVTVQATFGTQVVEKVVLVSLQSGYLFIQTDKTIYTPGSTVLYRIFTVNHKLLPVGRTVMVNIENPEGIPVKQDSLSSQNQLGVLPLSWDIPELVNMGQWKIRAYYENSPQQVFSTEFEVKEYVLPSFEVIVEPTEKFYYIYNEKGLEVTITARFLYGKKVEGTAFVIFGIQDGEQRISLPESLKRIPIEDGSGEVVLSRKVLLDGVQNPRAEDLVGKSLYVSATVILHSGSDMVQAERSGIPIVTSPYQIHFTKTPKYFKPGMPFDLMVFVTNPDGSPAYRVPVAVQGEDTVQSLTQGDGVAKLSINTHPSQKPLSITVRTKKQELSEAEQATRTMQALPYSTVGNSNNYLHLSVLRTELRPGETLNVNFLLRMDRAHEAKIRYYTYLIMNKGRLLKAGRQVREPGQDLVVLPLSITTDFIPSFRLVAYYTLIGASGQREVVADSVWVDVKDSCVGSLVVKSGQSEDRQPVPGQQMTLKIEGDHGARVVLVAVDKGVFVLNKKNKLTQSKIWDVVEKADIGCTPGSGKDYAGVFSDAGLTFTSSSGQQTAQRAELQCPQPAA", "sequence (P01024 749-1663 limits assumed, chain 2 of 2)": "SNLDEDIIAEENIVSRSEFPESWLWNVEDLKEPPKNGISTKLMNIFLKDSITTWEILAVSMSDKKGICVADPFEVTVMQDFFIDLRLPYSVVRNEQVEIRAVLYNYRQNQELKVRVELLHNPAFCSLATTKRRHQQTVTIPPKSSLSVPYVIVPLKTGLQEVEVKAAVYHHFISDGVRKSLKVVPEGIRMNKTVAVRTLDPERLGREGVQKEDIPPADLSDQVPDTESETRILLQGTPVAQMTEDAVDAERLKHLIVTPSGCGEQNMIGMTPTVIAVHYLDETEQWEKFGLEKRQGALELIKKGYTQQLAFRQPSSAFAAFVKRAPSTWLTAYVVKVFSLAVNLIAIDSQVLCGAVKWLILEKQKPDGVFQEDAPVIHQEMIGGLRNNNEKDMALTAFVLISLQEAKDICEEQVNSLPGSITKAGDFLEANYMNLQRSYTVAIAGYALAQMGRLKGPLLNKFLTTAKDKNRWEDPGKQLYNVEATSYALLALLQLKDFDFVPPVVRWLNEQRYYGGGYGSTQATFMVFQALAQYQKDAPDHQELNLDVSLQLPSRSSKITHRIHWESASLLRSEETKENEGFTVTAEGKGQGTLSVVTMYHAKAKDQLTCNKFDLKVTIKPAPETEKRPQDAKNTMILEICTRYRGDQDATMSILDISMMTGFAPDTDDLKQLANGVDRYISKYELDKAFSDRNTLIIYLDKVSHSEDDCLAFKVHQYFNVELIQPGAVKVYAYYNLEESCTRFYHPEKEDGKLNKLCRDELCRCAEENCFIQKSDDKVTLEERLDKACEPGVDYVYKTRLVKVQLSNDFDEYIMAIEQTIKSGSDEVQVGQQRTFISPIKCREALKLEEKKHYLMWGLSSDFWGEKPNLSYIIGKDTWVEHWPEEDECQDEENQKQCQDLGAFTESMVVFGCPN", "assay": "plate binding ELISA on coated C3b, purified protein; reference"}, "C3b protein [4]": {"biological_target": "C3b protein (UniProt P01024)", "assay": "plate binding ELISA on coated C3b, HEK293 supernatant 25 ng/mL; fold vs (-) control pCTM395 supernatant"}, "[5]": {"biological_target": "malondialdehyde modified LDL (UniProt P04114)", "assay": "plate binding ELISA on coated MDA-LDL; fold vs (-) control pCTM395 supernatant"}}, "data": [{"substance": "CFHT.0 (pCTM297) (from UniProt P08603 19-445)", "values": [{"measurement": "Fold Activity at Highest Dose (Relative to Control)", "setting": "[1]", "value": 1.5, "unit": "fold"}]}, {"substance": "CFHT.0 purified recombinant protein (pCTM134) (from UniProt P08603 19-445)", "values": [{"measurement": "IC50, decay acceleration activity (DAA) assay", "setting": "C3 convertase, C3bBb", "value": 1.95, "unit": "nM"}, {"measurement": "Fold Activity (Compared to CFHT-I62)", "setting": "[2]", "value": 1, "unit": "fold"}, {"measurement": "Fold Activity (Compared to CFHT-I62)", "setting": "CRP", "value": 1, "unit": "fold"}, {"measurement": "Fold Activity (Compared to CFHT-I62)", "setting": "C3d ligand", "value": 1, "unit": "fold"}, {"measurement": "Fold Activity (Compared to CFHT-I62)", "setting": "C3b protein [3]", "value": 1, "unit": "fold"}]}, {"substance": "His-CFHT.0 (pCTM447) (from UniProt P08603 19-445)", "values": [{"measurement": "Fold Activity at Highest Dose (Relative to Control)", "setting": "C3b protein [4]", "value": 1.5, "unit": "fold"}, {"measurement": "Fold Activity at Highest Dose (Relative to Control)", "setting": "[1]", "value": 1.4, "unit": "fold"}]}, {"substance": "rCFHT-I62 Protein (from UniProt P08603 19-445)", "values": [{"measurement": "Fold Activity at Highest Dose (Relative to Control)", "setting": "[5]", "value": 52, "unit": "fold"}]}]}
